{
  "source": "patent US20060257938A1",
  "about": "“Method of screening for drugs that block ligand binding to a lipid binding protein” (priority 2005, published 2006)",
  "molecules": {"B1": {"name": "117D, 72A (protein, listed as Rattus norvegicus)", "chain": "AFDGTWKVDRNENYEKFMEKMGINVVKRKLGAHDNLKLTITQEGNKFTVKESSNFRNIDVVFELGVDFAYSAADGTELTGTWTMEGNKLVGKFKRVDNGKELIAVREISGNELIQTDTYEGVEAKRIFKKE", "modifications": "PEPTIDE (1)...(131) wild-type rat intestinal fatty acid binding protein"}, "B2": {"name": "102C, 72A (protein, listed as Rattus norvegicus)", "chain": "B1 chain with L102C, D117Y", "modifications": "PEPTIDE (1)...(131) wild-type rat intestinal fatty acid binding protein"}, "B3": {"name": "21Y, 72A (protein, listed as Rattus norvegicus)", "chain": "B1 chain with M21Y, D117Y", "modifications": "PEPTIDE (1)...(131) wild-type rat intestinal fatty acid binding protein"}, "B4": {"name": "38Y, 72A (protein, listed as Rattus norvegicus)", "chain": "B1 chain with L38Y, D117Y", "modifications": "PEPTIDE (1)...(131) wild-type rat intestinal fatty acid binding protein"}, "B5": {"name": "78F, 72A (protein, listed as Rattus norvegicus)", "chain": "B1 chain with L78F, D117Y", "modifications": "PEPTIDE (1)...(131) wild-type rat intestinal fatty acid binding protein"}, "B6": {"name": "14M 72M 117A (protein, listed as Rattus norvegicus)", "chain": "B1 chain with Y14M, A72M, D117A", "modifications": "PEPTIDE (1)...(131) wild-type rat intestinal fatty acid binding protein"}, "B7": {"name": "38Q, 72A (protein, listed as Rattus norvegicus)", "chain": "B1 chain with L38Q, D117Y", "modifications": "PEPTIDE (1)...(131) wild-type rat intestinal fatty acid binding protein"}, "B8": {"name": "38T, 72A (protein, listed as Rattus norvegicus)", "chain": "B1 chain with L38T, D117Y", "modifications": "PEPTIDE (1)...(131) wild-type rat intestinal fatty acid binding protein"}, "B9": {"name": "38M, 72A (protein, listed as Rattus norvegicus)", "chain": "B1 chain with L38M, D117Y", "modifications": "PEPTIDE (1)...(131) wild-type rat intestinal fatty acid binding protein"}, "B10": {"name": "62P, 72A (protein, listed as Rattus norvegicus)", "chain": "B1 chain with F62P, D117Y", "modifications": "PEPTIDE (1)...(131) wild-type rat intestinal fatty acid binding protein"}, "B11": {"name": "31Q, 72A (protein, listed as Rattus norvegicus)", "chain": "B1 chain with G31Q, D117Y", "modifications": "PEPTIDE (1)...(131) wild-type rat intestinal fatty acid binding protein"}, "B12": {"name": "38S, 72A (protein, listed as Rattus norvegicus)", "chain": "B1 chain with L38S, D117Y", "modifications": "PEPTIDE (1)...(131) wild-type rat intestinal fatty acid binding protein"}, "B13": {"name": "14W 72M 117A (protein, listed as Rattus norvegicus)", "chain": "B1 chain with Y14W, A72M, D117A", "modifications": "PEPTIDE (1)...(131) wild-type rat intestinal fatty acid binding protein"}, "B14": {"name": "36V, 72A (protein, listed as Rattus norvegicus)", "chain": "B1 chain with L36V, D117Y", "modifications": "PEPTIDE (1)...(131) wild-type rat intestinal fatty acid binding protein"}, "B15": {"name": "36I, 72A (protein, listed as Rattus norvegicus)", "chain": "B1 chain with L36I, D117Y", "modifications": "PEPTIDE (1)...(131) wild-type rat intestinal fatty acid binding protein"}, "B16": {"name": "23W, 72A (protein, listed as Rattus norvegicus)", "chain": "B1 chain with I23W, D117Y", "modifications": "PEPTIDE (1)...(131) wild-type rat intestinal fatty acid binding protein"}, "B17": {"name": "31V, 72A (protein, listed as Rattus norvegicus)", "chain": "B1 chain with G31V, D117Y", "modifications": "PEPTIDE (1)...(131) wild-type rat intestinal fatty acid binding protein"}},
  "note": "Changes are numbered by the printed parent chain. “And” between values parts separate entries of the source, which are not always exact repeats. Equal values may be shown once.",
  "data": [
    {"experiment": "Probe fluorescence ratio response to arachidonic acid relative to ADIFAB2", "type": "binding", "details": "arachidonic acid; response relative to ADIFAB2", "outline": "(§1)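 Each fatty acid's response was expressed relative to ADIFAB2, the rI-FABP-L72A probe, as ΔR/ΔRreference. ΔR is the change in the background-corrected two-wavelength intensity ratio R=Fλ1/Fλ2 from its analyte-free baseline R0. Emission was read near about 420-480 nm for unbound and about 495-580 nm for FFA-bound probe.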", "values": [
      {"molecule": "B1", "DR/DR AA": "0.41 and 0.352"},
      {"molecule": "B2", "DR/DR AA": 0.14},
      {"molecule": "B3", "DR/DR AA": 2.378},
      {"molecule": "B4", "DR/DR AA": 2.081},
      {"molecule": "B5", "DR/DR AA": 2.001},
      {"molecule": "B6", "DR/DR AA": 1.649},
      {"molecule": "B7", "DR/DR AA": 1.976},
      {"molecule": "B8", "DR/DR AA": 1.598},
      {"molecule": "B9", "DR/DR AA": 1.850},
      {"molecule": "B10", "DR/DR AA": 1.548},
      {"molecule": "B11", "DR/DR AA": 1.024},
      {"molecule": "B12", "DR/DR AA": 1.175},
      {"molecule": "B13", "DR/DR AA": 0.945},
      {"molecule": "B14", "DR/DR AA": 1.026},
      {"molecule": "B15", "DR/DR AA": 0.812},
      {"molecule": "B16", "DR/DR AA": 0.618},
      {"molecule": "B17", "DR/DR AA": 0.395}
    ]},
    {"experiment": "Probe fluorescence ratio response to linoleic acid relative to ADIFAB2", "type": "binding", "details": "response relative to ADIFAB2", "outline": "as §1", "values": [
      {"molecule": "B1", "DR/DR LA": "0.44 and 0.380"},
      {"molecule": "B2", "DR/DR LA": 0.12},
      {"molecule": "B3", "DR/DR LA": 2.015},
      {"molecule": "B4", "DR/DR LA": 1.818},
      {"molecule": "B5", "DR/DR LA": 1.955},
      {"molecule": "B6", "DR/DR LA": 1.956},
      {"molecule": "B7", "DR/DR LA": 1.936},
      {"molecule": "B8", "DR/DR LA": 1.577},
      {"molecule": "B9", "DR/DR LA": 1.805},
      {"molecule": "B10", "DR/DR LA": 1.572},
      {"molecule": "B11", "DR/DR LA": 1.465},
      {"molecule": "B12", "DR/DR LA": 1.286},
      {"molecule": "B13", "DR/DR LA": 1.009},
      {"molecule": "B14", "DR/DR LA": 1.062},
      {"molecule": "B15", "DR/DR LA": 0.884},
      {"molecule": "B16", "DR/DR LA": 0.794},
      {"molecule": "B17", "DR/DR LA": 0.384}
    ]},
    {"experiment": "Probe fluorescence ratio response to oleic acid relative to ADIFAB2", "type": "binding", "details": "response relative to ADIFAB2", "outline": "as §1", "values": [
      {"molecule": "B1", "DR/DR OA": "0.35 and 0.294"},
      {"molecule": "B2", "DR/DR OA": 0.11},
      {"molecule": "B3", "DR/DR OA": 1.982},
      {"molecule": "B4", "DR/DR OA": 1.717},
      {"molecule": "B5", "DR/DR OA": 1.912},
      {"molecule": "B6", "DR/DR OA": 1.054},
      {"molecule": "B7", "DR/DR OA": 1.842},
      {"molecule": "B8", "DR/DR OA": 1.547},
      {"molecule": "B9", "DR/DR OA": 1.630},
      {"molecule": "B10", "DR/DR OA": 1.448},
      {"molecule": "B11", "DR/DR OA": 1.313},
      {"molecule": "B12", "DR/DR OA": 1.235},
      {"molecule": "B13", "DR/DR OA": 0.706},
      {"molecule": "B14", "DR/DR OA": 0.869},
      {"molecule": "B15", "DR/DR OA": 0.773},
      {"molecule": "B16", "DR/DR OA": 0.448},
      {"molecule": "B17", "DR/DR OA": 0.081}
    ]},
    {"experiment": "Probe fluorescence ratio response to palmitic acid relative to ADIFAB2", "type": "binding", "details": "response relative to ADIFAB2", "outline": "as §1", "values": [
      {"molecule": "B1", "DR/DR PA": "0.17 and 0.142"},
      {"molecule": "B2", "DR/DR PA": 0.09},
      {"molecule": "B3", "DR/DR PA": 1.094},
      {"molecule": "B4", "DR/DR PA": 1.518},
      {"molecule": "B5", "DR/DR PA": 1.416},
      {"molecule": "B6", "DR/DR PA": 0.870},
      {"molecule": "B7", "DR/DR PA": 1.551},
      {"molecule": "B8", "DR/DR PA": 1.022},
      {"molecule": "B9", "DR/DR PA": 1.131},
      {"molecule": "B10", "DR/DR PA": 1.247},
      {"molecule": "B11", "DR/DR PA": 1.039},
      {"molecule": "B12", "DR/DR PA": 0.724},
      {"molecule": "B13", "DR/DR PA": 0.515},
      {"molecule": "B14", "DR/DR PA": 0.713},
      {"molecule": "B15", "DR/DR PA": 0.815},
      {"molecule": "B16", "DR/DR PA": 0.492},
      {"molecule": "B17", "DR/DR PA": 0.206}
    ]},
    {"experiment": "Probe fluorescence ratio response to linolenic acid relative to ADIFAB2", "type": "binding", "details": "response relative to ADIFAB2", "outline": "as §1", "values": [
      {"molecule": "B1", "DR/DR LNA": "0.44 and 0.407"},
      {"molecule": "B2", "DR/DR LNA": 0.12},
      {"molecule": "B3", "DR/DR LNA": 1.881},
      {"molecule": "B4", "DR/DR LNA": 1.884},
      {"molecule": "B5", "DR/DR LNA": 2.033},
      {"molecule": "B6", "DR/DR LNA": 2.031},
      {"molecule": "B7", "DR/DR LNA": 1.986},
      {"molecule": "B8", "DR/DR LNA": 1.639},
      {"molecule": "B9", "DR/DR LNA": 1.697},
      {"molecule": "B10", "DR/DR LNA": 1.581},
      {"molecule": "B11", "DR/DR LNA": 1.494},
      {"molecule": "B12", "DR/DR LNA": 1.295},
      {"molecule": "B13", "DR/DR LNA": 1.286},
      {"molecule": "B14", "DR/DR LNA": 1.082},
      {"molecule": "B15", "DR/DR LNA": 1.004},
      {"molecule": "B16", "DR/DR LNA": 0.956},
      {"molecule": "B17", "DR/DR LNA": 0.776}
    ]}
  ]
}
